Assay [1] concerns the target T1, full-length human PD-1 expressed on transfected CHO-K1 cells (CHO/PD-1) (human, UniProt Q15116 25-288).
T1 construct: also called PD-1-transfected CHO cells; cell surface PD-1
As to the kind of experiment: flow cytometry blocking assay, 10 ug/ml antibody with biotin-PD-L1-Fc (blocked ligand) on CHO/PD-1 cells, Avidin-PE. How it is done:
Then the mixture was added to the CHO/PD-1 cells. After 1 hour, the cells were washed and binding of was detected with Avidin-PE. Flow cytometric analysis was performed using a FACScan flow cytometry (Becton Dickinson).
On the technique in general: In flow cytometry, cells or beads pass a laser one at a time.

Assay [2] has as its target T2, PD-1-Fc fusion protein (extracellular region of human PD-1 fused to human Fc) (human).
T2 construct: unlabelled when coated on plates or immobilized; also called human PD-1-Fc; PD-1-Fc-biotin
As to the kind of experiment: ELISA on coated human PD-1-Fc, HRP anti-human kappa. On the procedure: (§1) Finally, TMB was added as a substrate for HRP, and the absorbance was measured at 450 nm.

Assay [3] addresses T3, Cynomolgus monkey PD-1-Fc (Cynomolgus monkey, UniProt B0LAJ3 25-170).
T3 construct: not shown: The Fc part and any linker
Description: ELISA on coated Cynomolgus monkey PD-1-Fc, HRP anti-human kappa. How it is done: as §1

Assay [4] addresses T2, PD-1-Fc fusion protein (extracellular …). As to the kind of experiment: solution-equilibrium ELISA (Holash method): antibody preincubated with PD-1-Fc, free antibody captured on coated PD-1-Fc. On the procedure: as §1
On the technique in general: ELISA stands for enzyme-linked immunosorbent assay.

Assay [5] shares this target. As to the kind of experiment: ELISA on coated PD-1-Fc, HRP anti-human kappa.
Assay [6] concerns the target T4, CD28 (Homo sapiens (Human), UniProt P10747 19-152).
T4 construct: also called CD28 family member CD28
As to the kind of experiment: ELISA on coated CD28, HRP anti-human kappa. How it is done:
(§2) The specificity of anti-PD-1 antibodies was examined by detecting their binding to CD28 family members ICOS, CTLA-4 and CD28 (R&D System) using standard ELISA. […] Finally, TMB was added as a substrate for HRP, and the absorbance was measured at 450 nm.

The target of assay [7] is T5, ICOS (Homo sapiens (Human), UniProt Q9Y6W8 21-140).
T5 construct: also called CD28 family member ICOS
T5 sequence: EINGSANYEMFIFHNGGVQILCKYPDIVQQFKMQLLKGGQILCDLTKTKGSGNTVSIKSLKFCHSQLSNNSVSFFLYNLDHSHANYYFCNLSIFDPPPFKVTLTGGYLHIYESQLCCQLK
As to the kind of experiment: ELISA on coated ICOS, HRP anti-human kappa. How it is done: as §2

Assay [8] addresses T6, mouse PD-1-Fc (mouse, UniProt Q02242 25-169).
T6 construct: extracellular domain; not shown: Fc part
T6 sequence (looked up): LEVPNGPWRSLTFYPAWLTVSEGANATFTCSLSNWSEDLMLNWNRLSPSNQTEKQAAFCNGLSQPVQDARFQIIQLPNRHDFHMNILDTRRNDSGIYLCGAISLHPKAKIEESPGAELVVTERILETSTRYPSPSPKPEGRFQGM
Description: ELISA on coated mouse PD-1-Fc, HRP anti-human kappa. On the procedure: as §1

In assay [9] the target is T7, CTLA-4 (Homo sapiens (Human), UniProt P16410 36-161).
T7 construct: also called CD28 family member CTLA-4
T7 sequence: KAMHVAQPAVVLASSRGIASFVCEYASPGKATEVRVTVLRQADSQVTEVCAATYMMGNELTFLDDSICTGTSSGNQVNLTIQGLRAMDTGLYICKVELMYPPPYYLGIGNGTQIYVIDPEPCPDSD
As to the kind of experiment: ELISA on coated CTLA-4, HRP anti-human kappa. On the procedure:
as §2

Assay [10] concerns the target T4, CD28. As to the kind of experiment: ELISA on coated CD28, HRP anti-mouse kappa. How it is done: as §2
Assay [11] has as its target T2, PD-1-Fc fusion protein (extracellular …). Description: ELISA on coated human PD-1-Fc, HRP anti-mouse kappa. How it is done: as §1
Assay [12] concerns the target T7, CTLA-4. Description: ELISA on coated CTLA-4, HRP anti-mouse kappa. How it is done: as §2
Assay [13] addresses T3, Cynomolgus monkey PD-1-Fc. As to the kind of experiment: ELISA on coated Cynomolgus monkey PD-1-Fc, HRP anti-mouse kappa. On the procedure:
as §1

Assay [14] addresses T5, ICOS. As to the kind of experiment: ELISA on coated ICOS, HRP anti-mouse kappa. How it is done:
as §2

The target of assay [15] is T2, PD-1-Fc fusion protein (extracellular …). Description: ELISA on coated PD-1-Fc, HRP anti-mouse kappa.
Assay [16] concerns the target T6, mouse PD-1-Fc. As to the kind of experiment: ELISA on coated mouse PD-1-Fc, HRP anti-mouse kappa. How it is done: as §1
For assay [17], the target named is T2, PD-1-Fc fusion protein (extracellular …). Description: competition ELISA on coated PD-1-Fc, competitor biotin labelled Nivolumab, HRP-avidin.
The target of assay [18] is T1, full-length human PD-1 expressed on …. As to the kind of experiment: flow cytometry competition on CHO/PD-1 cells, competitor FITC labelled Nivolumab at a sub-saturating concentration.
The target is the same in assay [19]. Description: flow cytometry on CHO/PD-1 cells, FITC anti-human antibody. How it is done:
After 1 hour incubation, the cells were washed and an FITC labelled anti human antibody was incubated for 1 hour. Then the cells were washed and the flow cytometric analysis was performed using a FACScan flow cytometry.

Assay [20] has as its target T2, PD-1-Fc fusion protein (extracellular …). As to the kind of experiment: competition ELISA on coated PD-1-Fc, blocked ligand biotin labelled PDL1-Fc, HRP-avidin.
Assay [21] shares this target. Description: SPR (Biacore), ligand PD1-Fc-biotin, sample hu67D9, 25 C, fit 1:1 Binding. On the procedure: (§3) Affinity constants were calculated from the ratio of the rate constants.
A general note: Surface plasmon resonance follows binding to a sensor surface in real time, without labels.

Assay [22] shares this target. Description: ELISA on coated PD-1-Fc, HRP anti-human kappa. The source holds these as a separate data set.
Assay [23] shares this target. As to the kind of experiment: SPR (Biacore), PD-1-Fc immobilized, antibody as analyte. On the procedure:
as §3

We go through three molecules from patent US20180282412A1 (ASIA BIOTECH PTE, published 2018).

B1: 67D9 chimeric antibody (c67D9) (antibody, human IgG4 S228P, kappa, V domains shown)
VH: EVILVESGGGLVKPGGSLKVSCAASGFTFSTYGMSWVRQTPEKRLEWVATISGGGRDTYYPDTVKGRFTISRDNAKNTLYLQMSSLRSEDTALYYCARQDYGNYVWFAYWGQGTLVTVSA
VL: not shown
notes: Human kappa light chain (detected with anti-human kappa); also called chimeric Ab
As a reminder, the EC50 (read off the curve) is the concentration at which the effect is half-maximal. What is called Kd is the concentration at which binding is half-saturated. Take B1: the binding result is reported as “binds” in assay [1]; “no binding (tested: 1000 ng/ml)” in [6]; “no binding (tested: 1000 ng/ml)” in assay [7]; “no binding (tested: 1000 ng/ml)” in [8]; “no binding (tested: 1000 ng/ml)” in [9]. The “EC50 (read off the curve)” value in assay [2], in assay [3] and in assay [5] was approximately 10 ng/mL in each case. In [4], this molecule showed a Kd of 0.0169 nM.

B2: 67D9 (mouse anti-PD-1 monoclonal antibody) (antibody, mouse IgG2a, V domains shown)
VH: EVILVESGGGLVKPGGSLKVSCAASGFTFSTYGMSWVRQTPEKRLEWVATISGGGRDTYYPDTVKGRFTISRDNAKNTLYLQMSSLRSEDTALYYCARQDYGNYVWFAYWGQGTLVTVSA
VL: not shown
notes: Purified from hybridoma supernatant by Protein G; also called mouse Ab
Take B2: the binding result is given as “no binding (tested: 1000 ng/ml)” in [10]; “binds” in [1]; “no binding (tested: 1000 ng/ml)” in [12]; “no binding (tested: 1000 ng/ml)” in assay [14]; “no binding (tested: 1000 ng/ml)” in [16]. Further, the “EC50 (read off the curve)” value in [11], in assay [13] and in assay [15] was approximately 10 ng/mL throughout. This molecule also came in with a Kd in assay [4] of 0.0124 nM.

B3: anti-PD-1 humanized antibody hu67D9 (antibody, human IgG4 S228P, kappa, V domains shown)
VH: EVQLVESGGGLVQPGGSLRLSCAASGFTFSTYGMSWVRQAPGKGLEWVATISGGGRDTYYPDTVKGRFTISRDNSKNTLYLQMSSLRAEDTAVYYCARQDYGNYVWFAYWGQGTLVTVSS
VL: DIVLTQSPASLAVSPGQRATISCRASESVDSYGISFMHWFQQKPGQPPQLLIYSTSNRGSGVPARFSGSGSGTDFSLTINPVEADDTANYFCQQSQEVPWTFGQGTKVEIKR
notes: also called humanized 67D9; humanized Ab
For orientation: koff means the first-order rate constant of dissociation. In general, kon refers to the rate constant with which the complex forms. For the molecule B3, the “IC50 (read off the curve)” value in assay [17] was approximately 5 µg/mL; in assay [18], approximately 5 µg/mL; in assay [20] it was approximately 2 ng/mL. Moreover, the “EC50 (read off the curve)” value is approximately 10 ng/mL in [2]; approximately 10 ng/mL in [3]; approximately 10 ng/mL in assay [5]; approximately 0.02 µg/mL in assay [19]; approximately 10 ng/mL in assay [22]. The Kd was 0.0154 nM in assay [4] and 3.21 pM in [23]. Also, the binding result in assay [6], in assay [7], in assay [8] and in [9] was “no binding (tested: 1000 ng/ml)” in each case. Also, the koff in assay [21] is 2.77e-05 s⁻¹. For the same molecule, the kon in assay [21] came out at 8.63e+06 M⁻¹ s⁻¹.
